One substance from patent US20240059752A1 (ZHEJIANG DOER BIOLOGICS CO., LTD., priority 2020, published 2024) can be followed below.

Where no end group is shown, it is not given here. [ ]: non-standard residue; d: D form. Aib = CC(C)(N)C(=O)O

The test addresses T1, hGIPR (Homo sapiens, UniProt P48546).
T1 construct: expressed in transfected cells
T1 sequence (P48546 22-466): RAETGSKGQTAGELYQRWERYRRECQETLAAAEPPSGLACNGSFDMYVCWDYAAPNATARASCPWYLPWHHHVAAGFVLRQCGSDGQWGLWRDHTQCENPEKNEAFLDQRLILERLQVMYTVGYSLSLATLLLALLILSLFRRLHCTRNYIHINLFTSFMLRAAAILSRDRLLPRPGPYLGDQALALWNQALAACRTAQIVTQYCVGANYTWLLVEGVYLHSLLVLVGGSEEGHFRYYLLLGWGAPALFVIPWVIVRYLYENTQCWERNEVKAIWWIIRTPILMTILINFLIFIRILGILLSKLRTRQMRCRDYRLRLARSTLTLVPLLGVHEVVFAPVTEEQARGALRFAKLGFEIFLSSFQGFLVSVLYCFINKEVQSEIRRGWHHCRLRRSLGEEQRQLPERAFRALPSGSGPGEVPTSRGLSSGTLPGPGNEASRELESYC
Put plainly: GIPR agonist activity, luciferase reporter gene assay in CHO-K1 cells. The format is cell-based. The settings on record: % that of natural GIP peptide. Background: A reporter such as luciferase makes a cellular process visible.

“P29: GCG analogue, SEQ ID No. 5, unconjugated backbone of P29F (H[Aib]QGTFTSDYSK[Aib]KDSQAAQDFVQWLLAGGPSSGAPPPS-NH2)”: the “GIPR agonist activity relative to natural GIP peptide” value was “about 2%”.
